Source: patent US20260022171A1

Experiments:
[1] = target: cynomolgus monkey CD200R1 on cells (cynomolgus monkey); assay: cell-surface binding, cynomolgus CD4+ T cells
[2] = target: cynomolgus monkey CD200R1 on cells (cynomolgus monkey); assay: flow cytometry on cynomolgus monkey CD4+ T cells
[3] = target: cynomolgus monkey CD200R1 on cells (cynomolgus monkey); assay: cell-surface blocking, MfCD200-Fc on K562 cells expressing MfCD200R1
[4] = target: cynomolgus monkey CD200R1 on cells (cynomolgus monkey); assay: flow cytometry, biotinylated antibody on cynomolgus monkey CD4+ T cells (PBMC), streptavidin-PE, MFI; monkey #143
[5] = target: cynomolgus monkey CD200R1 on cells (cynomolgus monkey); assay: flow cytometry, biotinylated antibody on cynomolgus monkey CD4+ T cells (PBMC), streptavidin-PE, MFI; monkey #0013
[6] = target: cynomolgus monkey CD200R1 on cells (cynomolgus monkey); assay: flow cytometry, biotinylated antibody on cynomolgus monkey CD4+ T cells (PBMC), streptavidin-PE, MFI; monkey #0023
[7] = target: human CD200R1 on cells (human) (UniProt Q8TD46); assay: cell-based or functional assay
[8] = target: human CD200R1 on cells (human) (UniProt Q8TD46); assay: flow cytometry, biotinylated antibody on human CD4+ T cells (pan T cells of a healthy donor), streptavidin-PE, geometric mean; unit from the axis Log M
[9] = target: human CD200R1 on cells (human) (UniProt Q8TD46); assay: flow cytometry, biotinylated antibody on human CD8+ T cells (pan T cells of a healthy donor), streptavidin-PE, geometric mean; unit from the axis log M
[10] = target: human CD200R1 on cells (human) (UniProt Q8TD46); assay: flow cytometry, blocking: U937 cells stably expressing hu-CD200R1 incubated with the antibody, then with 55 nM huCD200-Fc-Flag, detected with anti-Flag PE (MFI)

Row | EC50 [1] | EC50 [2] | IC50 [3] | EC50 (read off the curve) [4] | EC50 (read off the curve) [5] | EC50 (read off the curve) [6] | Binder | pDok2 induction, western blot, U937 cells expressing CD200R1 [7] | EC50 [8] | EC50 [9] | IC50 [10]
1 | 1.3 nM | 0.34 to 1.54 nM | 0.5 nM | 1 nM | 1 nM | 0.9 nM | h10F6.V1 (antibody, IgG1, V domains shown) VH: EVQLQESGPGLVKPSETLSLTCTVSGFSLTNYRVSWVRQPPGKGLEWLGVMYAGGGTNYNSVFKSRLTISKDNSKNQVSLKLSSVTAADTAVYYCARERPLTGVMDNWGQGTLVTVSS VL: DIVLTQSPDSLAVSLGERATINCRASESVDYSGNSFMHWFQQKPGQPPKLLIYRASNLESGIPDRFSGSGSRTDFTLTISSLQAEDVAVYYCHQSNWDPPTFGGGTKVEIKR | – | – | – | –
2 | – | – | – | – | – | – | h22.1 (humanized 22.1 IgG) (antibody, V domains shown) VH: EVQLVQSGAEVKKPGASVKVSCKASGYTFTSYVMFWVRQAPGQRLEWIGYINPYNDDTKYNEKFKGRATLTSDKSASTAYMELSSLRSEDTAVYYCAREDYYGSRFVYWGQGTLVTVSS VL: DIQLTQSPSSLSASVGDRVTITCRASKSVSTSGYSYMHWYQQKPGKPPKLLIYLASNLESGVPSRFSGSGSGTDFTLTISSLQPEDFATYYCQHNRELLTFGGGTKVEIKR | 5.6 nM | 3.04 nM | 1.91 nM | 1.8 nM
